Test results reported in patent US9629910B2, “Use of Th9 cells and IL-9 for the treatment of melanoma” (THE BRIGHAM AND WOMEN'S HOSPITAL, INC., priority 2011, dated 2017).

Key:
B16F10 cells = test: Growth curve assay of tumor cells with rIL-9 (crystal violet); assay type: cell-based, mouse; settings: melanoma cells and lung carcinoma cells, rIL-9 at different concentrations (FIG. 10D)
Protocol: Effect of rIL-9 on growth of B16F10 cells were studied by growth curve assay. B16F10 cells were seeded with rIL-9. After each incubation period cells were fixed (10% acetic acid in 10% ethanol). Cells were subsequently stained with 0.4% crystal violet in 10% ethanol for 30 min. Subsequently, 200 μl 10% acetic acid was added. After 30 min, 100 μL solution was transferred into 96-well plate and OD was measured at 595-wavelength.

[1] = test system: Lewis lung carcinoma (LLC-1) cells; test: Lewis lung carcinoma (LLC-1) tumor growth in mice treated with rIL-9; assay type: in vivo
Protocol: (§1) Melanoma cell lines (B16F10 cells or B16F10-ova cells), T cell lymphoma (EL-4 or ovalbumin expressing EL-4 (EG-7)) and Lewis lung carcinoma (LLC1) were grown in RPMI1640 supplemented with 10% FBS, and penicillin/streptomycin. B16F10 cells (2-4×10^5 cells/150 μl/mouse), EL-4 (2×10^5 cells/150 μA/mouse), or LLC1 (5×10^5 cells/150 μA/mouse) were injected subcutaneously into the right or left flank of the mice and tumor development was monitored over time. Tumor volume was calculated by following formula: (major circumference×minor circumference^2)/2. Mice were sacrificed when there was external necrosis or/and tumor volume reached no greater than 2 cm in any direction.
(§2) rIL-9 (5 μg/100 μA PBS/mouse from Cell Sciences, USA) was injected (ip) from day 0 and every third day till the termination of the experiment. In lewis lung carcinoma (LLC-1) model, rIL-9 (50 ng/100 μl PBS/mouse from RnD systems) was used on every alternate day till the termination of experiment. Unlike Cell Science rIL-9 (source: E. coli), rIL-9 from RnD systems is glycosylated and therefore has stronger biological activity compared to Cell Sciences. Thus, 100 times less rIL-9 was used in LLC-1 tumor model experiments compared to melanoma model experiments.

EL-4 T lymphoma cells = test: EL-4 tumor growth in mice treated with IL-9; assay type: in vivo; settings: IL-9 treatment (data not included)
Protocol: as §1

B16F10 melanoma cells = test: B16F10 melanoma growth in mice treated with rIL-9 (i.p.); assay type: in vivo
Protocol: as §1, §2

B1: rIL-9: recombinant interleukin-9 cytokine from Cell Sciences, injected ip 5 μg/mouse in melanoma model (protein, UniProt P15247 19-144, looked up)
Interleukin-9: QRCSTTWGIRDTNYLIENLKDDPPSKCSCSGNVTSCLCLSVPTDDCTTPCYREGLLQLTNATQKSRLLPVFHRVKRIVEVLKNITCPSFSCEKPCNQTMAGNTLSFLKSLLGTFQKTEMQRQKSRP
How did the “tumor cell growth in vitro” value (B16F10 cells) turn out when B1 was run?
The value was “does not affect the growth of these cells in vitro”.

And the tumor development ([1]; mast cell deficient mice (Kit W-sh), LLC-1, vs control (FIG. 5F))?
The tumor development was “no significant difference in tumor development”.

And the LLC-1 tumor development ([1]; normal WT mice, rIL-9 vs control group (FIG. 5C))?
Its LLC-1 tumor development is “significantly suppressed”.

And the EL-4 tumor growth (EL-4 T lymphoma cells)?
Its EL-4 tumor growth is “neither inhibition nor acceleration”.

What about the melanoma growth (B16F10 melanoma cells; Rag1-/- C57BL/6 mice (lack T and B cells), rIL-9 vs PBS (FIG. 5D)) of the same molecule?
Its melanoma growth is “significantly slowed melanoma growth”.

And the tumor development (B16F10 melanoma cells; mast cell deficient mice (Kit W-sh), B16 melanoma, vs control (FIG. 5E))?
The tumor development was “no significant difference in tumor development”.

What about the survival of mice (B16F10 melanoma cells; melanoma bearing mice, rIL-9 (data not shown)) of the same molecule?
The survival of mice was “increased the survival of mice”.

And the “melanoma growth in vaccinated mice” value (B16F10 melanoma cells; mice vaccinated with 1 million irradiated melanoma cells, melanoma cells injected 7 days later, rIL-9 vs PBS)?
The value was “significantly slower melanoma growth”.

And the melanoma growth (B16F10 melanoma cells; normal WT mice, B16F10 s.c., rIL-9 i.p. vs PBS (FIG. 5B))?
The melanoma growth was “impaired melanoma growth”.
